In patent US20100189713A1 (Biogen, published 2010):
Values belong to the binder of their own block, whether it stands above or below them.

Key:
[1] = molecular target: T1, full-length mouse plexin-A2 protein, N-terminal myc-tag, stably expressed on L cells (mouse, UniProt P70207 35-1894); test: AP-fusion binding to L cells stably expressing plexin-A2, colorimetric AP activity of cell lysates
T1 construct: whole, on cells; also called plexin-A2 expressing L cells
Experimental: In order to show the binding of Sema6A to Plexin-A2, L-cells that stably express the full-length mouse plexin-A2 proteins were incubated with 250 μl of HBSS with 0.5 mg/ml BSA, 0.1% NaN₃, and 20 mM HEPES, pH 7.0 (HBHA solution) containing 1% FBS and the AP-Sema6Aect-Fc recombinant proteins (the culture supernatant) for 1 h on ice as described in Flanagan and Leder, Cell 63: 185-194 (1990). After removal of the HBHA solution, cells were treated with 250 μl of 10 mM Tris-HCl, pH 8.0, supplemented with 0.1% Triton X-100 to dissolve the recombinant proteins bound to the cell surface. The cell lysates were subjected to colorimetric analysis to measure AP activity as described in Flanagan and Leder, Cell 63: 185-194 (1990) and Flanagan et al., Methods Enzymol 327: 17-35 (2000).
It was shown that the Fc-dimerized recombinant AP-tagged ectodomain of Sema6A bound with a high affinity to plexin-A2 expressing L cells. […] 25: 3628-3637 (2005).

[2] = molecular target: T2, plexin-A2A396E expressed in COS7 cells (mouse, UniProt P70207 35-1894); test: AP-fusion binding assay on transfected COS7 cells
T2 construct: whole, on cells; Same point mutation as in NMF454 mice, made by site-directed mutagenesis; also called mutated plexin-A2A396E; NMF454 mutation
Experimental: This plexin-A2A396E cDNA was then expressed in COS7 cells, and its ability to bind Sema6A-AP was tested using the same method shown in Example 8. See Suto et al. Neuron 53: 5354 (2007).

T1 sequence (P70207 other isoform, or with tags, fused parts or gaps): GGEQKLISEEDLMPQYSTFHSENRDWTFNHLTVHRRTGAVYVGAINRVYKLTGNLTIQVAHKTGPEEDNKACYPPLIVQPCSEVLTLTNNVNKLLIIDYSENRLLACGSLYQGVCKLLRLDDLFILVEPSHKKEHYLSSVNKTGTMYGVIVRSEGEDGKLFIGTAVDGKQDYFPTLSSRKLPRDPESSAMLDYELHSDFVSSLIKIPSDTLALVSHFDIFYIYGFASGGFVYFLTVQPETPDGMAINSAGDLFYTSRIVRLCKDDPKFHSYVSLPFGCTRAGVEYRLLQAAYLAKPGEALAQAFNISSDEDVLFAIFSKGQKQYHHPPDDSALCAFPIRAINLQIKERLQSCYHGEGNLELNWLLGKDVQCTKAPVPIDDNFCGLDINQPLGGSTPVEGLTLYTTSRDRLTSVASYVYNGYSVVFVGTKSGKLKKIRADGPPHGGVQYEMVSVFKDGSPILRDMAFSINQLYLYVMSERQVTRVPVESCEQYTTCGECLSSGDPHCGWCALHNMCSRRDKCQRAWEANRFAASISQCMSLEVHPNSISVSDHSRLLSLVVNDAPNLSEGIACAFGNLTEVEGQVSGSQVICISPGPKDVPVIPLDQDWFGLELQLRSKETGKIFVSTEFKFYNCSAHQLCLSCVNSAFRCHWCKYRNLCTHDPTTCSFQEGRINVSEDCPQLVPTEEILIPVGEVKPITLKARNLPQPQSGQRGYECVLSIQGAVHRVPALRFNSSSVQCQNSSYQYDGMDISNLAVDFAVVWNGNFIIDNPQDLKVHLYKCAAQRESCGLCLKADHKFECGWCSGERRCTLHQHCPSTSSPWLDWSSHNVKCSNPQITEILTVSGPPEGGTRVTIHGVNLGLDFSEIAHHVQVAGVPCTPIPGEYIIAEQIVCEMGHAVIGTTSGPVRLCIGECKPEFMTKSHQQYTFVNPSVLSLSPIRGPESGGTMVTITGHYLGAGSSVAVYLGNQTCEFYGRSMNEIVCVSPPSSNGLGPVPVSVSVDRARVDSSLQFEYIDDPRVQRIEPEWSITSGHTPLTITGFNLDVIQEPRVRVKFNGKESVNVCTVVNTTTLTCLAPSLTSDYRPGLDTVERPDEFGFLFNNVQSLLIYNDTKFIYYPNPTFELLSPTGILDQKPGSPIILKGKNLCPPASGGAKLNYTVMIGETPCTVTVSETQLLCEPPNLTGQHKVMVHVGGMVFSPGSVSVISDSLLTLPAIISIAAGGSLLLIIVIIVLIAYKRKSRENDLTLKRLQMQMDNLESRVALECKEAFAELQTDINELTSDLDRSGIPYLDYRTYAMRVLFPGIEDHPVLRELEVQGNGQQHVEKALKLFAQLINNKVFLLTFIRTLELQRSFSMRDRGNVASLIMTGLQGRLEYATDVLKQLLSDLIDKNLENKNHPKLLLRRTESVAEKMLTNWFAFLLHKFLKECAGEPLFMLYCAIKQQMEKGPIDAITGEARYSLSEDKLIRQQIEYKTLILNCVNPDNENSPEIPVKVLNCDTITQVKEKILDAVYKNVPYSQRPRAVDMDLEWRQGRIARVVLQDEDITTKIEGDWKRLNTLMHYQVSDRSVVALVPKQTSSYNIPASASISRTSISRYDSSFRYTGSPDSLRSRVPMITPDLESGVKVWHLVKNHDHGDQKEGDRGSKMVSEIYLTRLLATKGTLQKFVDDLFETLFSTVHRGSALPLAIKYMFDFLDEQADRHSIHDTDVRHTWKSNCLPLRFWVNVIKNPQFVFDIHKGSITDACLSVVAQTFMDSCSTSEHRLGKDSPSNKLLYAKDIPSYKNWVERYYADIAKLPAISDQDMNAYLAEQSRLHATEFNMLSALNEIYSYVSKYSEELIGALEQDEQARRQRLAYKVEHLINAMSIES
T2 sequence (P70207 35-1894 A396E): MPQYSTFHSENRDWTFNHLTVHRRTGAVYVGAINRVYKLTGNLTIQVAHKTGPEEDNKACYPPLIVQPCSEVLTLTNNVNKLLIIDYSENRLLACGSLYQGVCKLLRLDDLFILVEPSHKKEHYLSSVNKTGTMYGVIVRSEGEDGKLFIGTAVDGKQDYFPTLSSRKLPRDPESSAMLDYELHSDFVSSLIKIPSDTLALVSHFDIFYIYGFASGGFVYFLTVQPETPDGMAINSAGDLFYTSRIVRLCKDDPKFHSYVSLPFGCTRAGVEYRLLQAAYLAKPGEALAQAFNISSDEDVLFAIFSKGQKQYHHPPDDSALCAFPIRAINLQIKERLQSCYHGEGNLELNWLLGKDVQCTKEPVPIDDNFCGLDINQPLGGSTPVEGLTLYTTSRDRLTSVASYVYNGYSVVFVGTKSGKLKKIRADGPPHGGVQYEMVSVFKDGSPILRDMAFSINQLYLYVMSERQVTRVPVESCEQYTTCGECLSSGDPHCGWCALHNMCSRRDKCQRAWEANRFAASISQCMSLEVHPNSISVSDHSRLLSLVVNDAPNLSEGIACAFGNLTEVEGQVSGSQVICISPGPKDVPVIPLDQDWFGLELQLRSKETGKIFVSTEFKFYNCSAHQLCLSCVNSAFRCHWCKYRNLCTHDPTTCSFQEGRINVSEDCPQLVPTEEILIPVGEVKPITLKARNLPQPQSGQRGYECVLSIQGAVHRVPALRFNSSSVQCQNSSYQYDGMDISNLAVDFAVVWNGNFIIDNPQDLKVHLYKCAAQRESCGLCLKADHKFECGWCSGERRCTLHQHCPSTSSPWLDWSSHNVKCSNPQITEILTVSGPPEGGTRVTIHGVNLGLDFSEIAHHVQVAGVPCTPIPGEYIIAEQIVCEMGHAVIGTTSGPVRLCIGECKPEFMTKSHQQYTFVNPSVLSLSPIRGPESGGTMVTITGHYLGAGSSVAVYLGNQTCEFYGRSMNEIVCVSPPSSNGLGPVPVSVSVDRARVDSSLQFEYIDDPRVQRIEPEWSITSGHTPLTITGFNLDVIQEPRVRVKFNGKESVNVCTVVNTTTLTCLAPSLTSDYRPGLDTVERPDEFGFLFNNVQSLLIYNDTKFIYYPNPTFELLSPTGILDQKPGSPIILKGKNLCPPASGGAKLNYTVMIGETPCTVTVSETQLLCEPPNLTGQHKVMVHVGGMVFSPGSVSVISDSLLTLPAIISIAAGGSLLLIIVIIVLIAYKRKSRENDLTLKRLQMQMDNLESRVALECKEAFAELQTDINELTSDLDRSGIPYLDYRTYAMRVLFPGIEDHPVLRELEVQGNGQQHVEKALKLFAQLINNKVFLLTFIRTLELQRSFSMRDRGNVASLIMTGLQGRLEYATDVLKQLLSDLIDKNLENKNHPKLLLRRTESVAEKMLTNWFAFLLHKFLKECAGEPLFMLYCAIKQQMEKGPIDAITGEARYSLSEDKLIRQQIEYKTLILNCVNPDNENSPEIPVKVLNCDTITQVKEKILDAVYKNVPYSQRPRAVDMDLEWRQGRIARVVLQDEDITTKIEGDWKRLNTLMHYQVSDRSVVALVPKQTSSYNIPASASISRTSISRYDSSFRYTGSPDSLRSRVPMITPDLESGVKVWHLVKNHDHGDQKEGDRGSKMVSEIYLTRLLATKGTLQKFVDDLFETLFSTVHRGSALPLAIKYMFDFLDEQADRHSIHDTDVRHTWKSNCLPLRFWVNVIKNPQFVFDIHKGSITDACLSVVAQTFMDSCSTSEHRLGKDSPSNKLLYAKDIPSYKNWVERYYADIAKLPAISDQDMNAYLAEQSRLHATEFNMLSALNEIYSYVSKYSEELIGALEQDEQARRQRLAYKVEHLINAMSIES

Kd [1]: 3.21 nM
B1: recombinant Fc-dimerized AP-tagged Sema6A ectodomain (AP-Sema6Aect-Fc) (Fc fusion, mouse, UniProt O35464 18-648, looked up)
chain: AGFPEDSEPISISHGNYTKQYPVFVGHKPGRNTTQRHRLDIQMIMIMNRTLYVAARDHIYTVDIDTSHTEEIYCSKKLTWKSRQADVDTCRMKGKHKDECHNFIKVLLKKNDDTLFVCGTNAFNPSCRNYRVDTLETFGDEFSGMARCPYDAKHANIALFADGKLYSATVTDFLAIDAVIYRSLGDSPTLRTVKHDSKWLKEPYFVQAVDYGDYIYFFFREIAVEYNTMGKVVFPRVAQVCKNDMGGSQRVLEKQWTSFLKARLNCSVPGDSHFYFNILQAVTDVIRINGRDVVLATFSTPYNSIPGSAVCAYDMLDIANVFTGRFKEQKSPDSTWTPVPDERVPKPRPGCCAGSSSLEKYATSNEFPDDTLNFIKTHPLMDEAVPSIINRPWFLRTMVRYRLTKIAVDNAAGPYQNHTVVFLGSEKGIILKFLARIGSSGFLNGSLFLEEMNVYNPEKCSYDGVEDKRIMGMQLDRASGSLYVAFSTCVIKVPLGRCERHGKCKKTCIASRDPYCGWVRESGSCAHLSPLSRLTFEQDIERGNTDGLGDCHNSFVALNGHASSLYPSTTTSDSASRDGYESRGGMLDWNDLLEAPGSTDPLGAVSSHNHQDKKGVIRESYLKSNDQLVPV
notes: range 18-648; Used as culture supernatant of transfected HEK293T cells; also called Fc-dimerized recombinant AP-tagged ectodomain of Sema6A; not shown: alkaline phosphatase (AP) tag from the Aptag-4 vector; Fc from the pEF-Fc expression vector

binding result [2]: no binding
B2: Sema6A-AP (ligand, UniProt O35464 19-649, looked up)
chain: GFPEDSEPISISHGNYTKQYPVFVGHKPGRNTTQRHRLDIQMIMIMNRTLYVAARDHIYTVDIDTSHTEEIYCSKKLTWKSRQADVDTCRMKGKHKDECHNFIKVLLKKNDDTLFVCGTNAFNPSCRNYRVDTLETFGDEFSGMARCPYDAKHANIALFADGKLYSATVTDFLAIDAVIYRSLGDSPTLRTVKHDSKWLKEPYFVQAVDYGDYIYFFFREIAVEYNTMGKVVFPRVAQVCKNDMGGSQRVLEKQWTSFLKARLNCSVPGDSHFYFNILQAVTDVIRINGRDVVLATFSTPYNSIPGSAVCAYDMLDIANVFTGRFKEQKSPDSTWTPVPDERVPKPRPGCCAGSSSLEKYATSNEFPDDTLNFIKTHPLMDEAVPSIINRPWFLRTMVRYRLTKIAVDNAAGPYQNHTVVFLGSEKGIILKFLARIGSSGFLNGSLFLEEMNVYNPEKCSYDGVEDKRIMGMQLDRASGSLYVAFSTCVIKVPLGRCERHGKCKKTCIASRDPYCGWVRESGSCAHLSPLSRLTFEQDIERGNTDGLGDCHNSFVALNGHASSLYPSTTTSDSASRDGYESRGGMLDWNDLLEAPGSTDPLGAVSSHNHQDKKGVIRESYLKSNDQLVPVT
notes: Printed only as 'Sema6A-AP'; Order of the pieces follows the printed label only; not shown: alkaline phosphatase (AP) tag
